In PMC8622909 (Pharmaceuticals, 2021):

T1: UGT1A9 (Homo sapiens, UniProt O60656)
T1 construct: human recombinant UGT1A9
T1 sequence (O60656 26-530): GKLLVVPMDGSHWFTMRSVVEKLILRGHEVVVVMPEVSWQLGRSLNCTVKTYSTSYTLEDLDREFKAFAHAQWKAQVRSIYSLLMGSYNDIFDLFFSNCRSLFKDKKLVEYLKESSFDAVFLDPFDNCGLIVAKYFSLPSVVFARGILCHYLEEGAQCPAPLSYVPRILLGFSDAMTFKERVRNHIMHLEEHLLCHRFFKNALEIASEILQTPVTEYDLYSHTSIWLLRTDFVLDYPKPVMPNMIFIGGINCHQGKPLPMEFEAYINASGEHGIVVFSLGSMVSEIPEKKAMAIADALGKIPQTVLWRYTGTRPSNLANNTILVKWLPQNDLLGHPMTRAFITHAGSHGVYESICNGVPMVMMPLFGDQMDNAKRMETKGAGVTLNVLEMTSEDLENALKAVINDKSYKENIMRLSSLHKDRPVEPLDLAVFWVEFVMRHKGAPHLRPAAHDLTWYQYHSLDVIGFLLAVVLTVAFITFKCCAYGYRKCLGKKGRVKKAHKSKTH

B1: UGT1A9 (Homo sapiens) (protein)
chain: T1 sequence (O60656 26-530)

What was measured:
UGT1A9 = target: T1, UGT1A9; assay: inhibition of PTU glucuronidation by recombinant UGT1A9, HPLC-MS/MS; assay type: biochemical; conditions: read-out: Magnolol IC50
purified protein = substrate: CCCc1cc(=O)[nH]c(=S)[nH]1; assay: purified protein; conditions: UDPGA

Molecule	IC50 (UGT1A9) [nM]	Km (purified protein) [µM]	Vmax (purified protein) [µmol/min/mg]
C=CCc1ccc(O)c(-c2cc(CC=C)ccc2O)c1 [magnolol]	1160		
B1		15.27 ± 7.73	0.352
